Laboratory results taken from article PMC4888843.

Experiments:
human BAXΔC21 (human) = human BAXΔC21 (human) (UniProt Q07812); test: SEC
mouse Bcl-2ΔC22 (mouse) = mouse Bcl-2ΔC22 (mouse) (UniProt P10417); test: SPR
[1] = target: human MCL-1ΔN170ΔC23 (human) (UniProt Q07820); test: ELISA

**Q.** Which stoichiometry N (human BAXΔC21 (human)) does the source give for “human BAXΔC21 (from UniProt Q07812 1-171) (domain or fragment)” here?
**A.** 2

**Q.** How did the fold weaker affinity than wild-type mBak BH3 (mouse Bcl-2ΔC22 (mouse)) turn out when mBak Q75L BH3 synthetic peptide was run?
**A.** 2.5 fold

**Q.** With “phage-displayed human BAK BH3 peptide G82E (from UniProt Q16611 67-92)” as the substance, how does the IC50 [1] read?
**A.** > 10 µM
